Test results from the Immune Epitope Database (IEDB).
Values belong to the sequence of their own block, whether it stands above or below them.

Key:
[1] = target: HLA-B*15:03; experiment: IEDB peptide-MHC binding, purified MHC/competitive/radioactivity; filed as Kd, often an IC50 or EC50 that approximates it; ≥ and ≤ were set here for values at or beyond the usual limits of such assays
[2] = target: HLA-A*02:06; experiment: as above
[3] = target: HLA-A*02:02; experiment: as above
[4] = target: HLA-A*68:02; experiment: as above
[5] = target: HLA-A*02:03; experiment: as above
[6] = target: HLA-A*11:01; experiment: IEDB peptide-MHC binding, purified MHC/competitive/fluorescence; ≥ and ≤ were set here for values at or beyond the usual limits of such assays
[7] = target: HLA-A*26:01; experiment: IEDB peptide-MHC binding, purified MHC/competitive/radioactivity; filed as Kd, often an IC50 or EC50 that approximates it; ≥ and ≤ were set here for values at or beyond the usual limits of such assays
[8] = target: HLA-A*24:02; experiment: IEDB peptide-MHC binding, purified MHC/competitive/fluorescence; ≥ and ≤ were set here for values at or beyond the usual limits of such assays
[9] = target: HLA-B*35:01; experiment: IEDB peptide-MHC binding, purified MHC/competitive/radioactivity; filed as Kd, often an IC50 or EC50 that approximates it; ≥ and ≤ were set here for values at or beyond the usual limits of such assays
[10] = target: HLA-B*07:02; experiment: as above
[11] = target: HLA-B*53:01; experiment: as above
[12] = target: HLA-B*51:01; experiment: as above
[13] = target: HLA-A*02:01; experiment: IEDB peptide-MHC binding, purified MHC/competitive/fluorescence; ≥ and ≤ were set here for values at or beyond the usual limits of such assays
[14] = target: HLA-A*03:01; experiment: as above
[15] = target: HLA-A*24:03; experiment: IEDB peptide-MHC binding, purified MHC/direct/fluorescence; filed as Kd, often an IC50 or EC50 that approximates it; ≥ and ≤ were set here for values at or beyond the usual limits of such assays; details: source organism: Salmonella enterica
[16] = target: HLA-B*57:01; experiment: IEDB peptide-MHC binding, purified MHC/competitive/radioactivity; filed as Kd, often an IC50 or EC50 that approximates it; ≥ and ≤ were set here for values at or beyond the usual limits of such assays
[17] = target: HLA-A*30:02; experiment: as above; details: source organism: Dengue virus 3 Martinique/1243/1999
[18] = target: HLA-A*30:01; experiment: as above
[19] = target: HLA-B*15:01; experiment: as above
[20] = target: HLA-A*32:01; experiment: as above
[21] = target: HLA-B*08:01; experiment: as above
[22] = target: HLA-A*02:01; experiment: as above
[23] = target: HLA-B*51:01; experiment: IEDB peptide-MHC binding, purified MHC/competitive/fluorescence; filed as Kd, often an IC50 or EC50 that approximates it; ≥ and ≤ were set here for values at or beyond the usual limits of such assays; details: source organism: West Nile virus
[24] = target: HLA-B*57:01; experiment: IEDB peptide-MHC binding, purified MHC/direct/fluorescence; filed as Kd, often an IC50 or EC50 that approximates it; ≥ and ≤ were set here for values at or beyond the usual limits of such assays; details: source organism: Entamoeba histolytica HM-1:IMSS
[25] = target: HLA-B*58:01; experiment: as above; details: source organism: Entamoeba histolytica HM-1:IMSS
[26] = source organism: Vaccinia virus WR
[27] = source organism: Lymphocytic choriomeningitis virus (strain Armstrong) (clone 53b)
[28] = source organism: Dengue virus 2 Jamaica/1409/1983
[29] = source organism: Zaire ebolavirus
[30] = source organism: Dengue virus 3 Martinique/1243/1999
[31] = source organism: Dengue virus 1 Brazil/97-11/1997
[32] = source organism: Vaccinia virus
[33] = source organism: Lassa virus GA391
[34] = source organism: Dengue virus 2 Peru/IQT2913/1996
[35] = source organism: Vaccinia virus Copenhagen
[36] = source organism: Trypanosoma cruzi
[37] = source organism: Human immunodeficiency virus type 1 (CLONE 12)
[38] = source organism: Dengue virus 2 16681-PDK53
[39] = source organism: Dengue virus 4 Philippines/H241/1956
[40] = source organism: Dengue virus 3 China/80-2/1980

Sequence: AEMMAPSMF
Kd [1, 26]: 0.0172 µM

Sequence: ALPHIIDEV
Kd [2, 27]: 0.066 µM | Kd [3, 27]: 0.013 µM | Kd [4, 27]: 0.179 µM | Kd [5, 27]: 0.00034 µM

Sequence: ANGSLFTEQ
IC50 [6, 26]: ≥ 104 µM

Kd ([4]; source organism: Homo sapiens): 0.916 µM
Sequence: ELDSNLYRI

Sequence: ESHNQTFLI
Kd [4, 28]: 0.00351 µM

Sequence: ETILELTDAL
Kd [4, 28]: 0.134 µM | Kd [7, 28]: 0.277 µM

Sequence: ETPNLAERV
Kd ([4]; source organism: Dengue virus 1 Singapore/S275/1990): 0.0248 µM

Sequence: EYPPWLTEK
IC50 [6, 29]: ≥ 123 µM | IC50 [8, 29]: 9.58 µM

Sequence: FPYSIPATLL
Kd [9, 30]: 0.131 µM | Kd [10, 30]: 0.028 µM | Kd [11, 30]: 0.00997 µM | Kd [12, 30]: 0.325 µM

Sequence: FSPGTSGSPI
Kd [12, 28]: 12.8 µM | Kd [4, 28]: 0.294 µM

Sequence: FTQQALSSF
Kd [1, 26]: 0.00643 µM

Sequence: GKRSNTTGK
IC50 [13, 29]: ≥ 14300 µM | IC50 [14, 29]: 52.6 µM

Sequence: GTAKLRWFV
Kd [4, 31]: 0.0307 µM

Sequence: HHQINYHGF
Kd [15]: 0.965 µM

Sequence: IAIGIITLY
Kd [16, 30]: 0.00362 µM | Kd [17]: 2.68 µM | Kd [7, 30]: 0.013 µM

Sequence: IGIGILLTW
Kd [11, 31]: 5.45 µM | Kd [16, 31]: 0.272 µM

Sequence: IKGTSGTEK
IC50 [14, 32]: ≥ 187 µM

Sequence: IKVLVEHGF
Kd [1, 26]: 0.473 µM | Kd [18, 26]: 5.93 µM | Kd [19, 26]: 9.69 µM | Kd [20, 26]: 11.3 µM | Kd [21, 26]: ≥ 77.7 µM

Sequence: ILAADLEKL
Kd [2, 33]: 0.195 µM | Kd [3, 33]: 0.0323 µM | Kd [4, 33]: 4.29 µM | Kd [5, 33]: 0.02 µM

Sequence: ILMGLDKGW
Kd [16, 31]: 0.049 µM

Sequence: IPTVMAFHL
Kd [10, 34]: 0.596 µM | Kd [11, 34]: 0.0489 µM | Kd [12, 34]: 5.51 µM

Sequence: IQTMDGQEL
Kd [1, 26]: 0.144 µM

Sequence: IQYDRRSFF
Kd [1, 35]: 0.000154 µM

Sequence: ISTYPGNTF
Kd [1, 26]: 0.000479 µM

Sequence: IVYSLVTTI
Kd [1, 26]: 1.86 µM | Kd [18, 26]: 0.016 µM | Kd [19, 26]: 0.542 µM | Kd [20, 26]: 0.0036 µM | Kd [21, 26]: 13.6 µM

Kd ([4]; source organism: Homo sapiens): ≥ 60 µM
Sequence: KLLEGEESRI

Sequence: LGFLNEDHW
Kd ([16]; source organism: Murray valley encephalitis virus (strain MVE-1-51)): 0.172 µM

Sequence: LKSNADWFF
Kd [1, 35]: 0.0102 µM

Sequence: LLGLWGFAAQ
Kd [2, 36]: 0.462 µM | Kd [3, 36]: 1.24 µM | Kd [22, 36]: 1.1 µM | Kd [4, 36]: 1.82 µM | Kd [5, 36]: 0.394 µM

Sequence: LTSRDGEPRM
Kd [16, 30]: 1.32 µM | Kd [18, 30]: 10.9 µM

Sequence: MAVGLVSILA
Kd [4, 30]: 0.00323 µM

Sequence: MLMFIFTGI
Kd [1, 26]: 1.01 µM | Kd [18, 26]: 0.281 µM | Kd [19, 26]: 1.41 µM | Kd [20, 26]: 1.45 µM | Kd [21, 26]: 0.265 µM

Sequence: MVHQIFGSAY
Kd [9, 30]: 0.018 µM | Kd [19, 30]: 0.0372 µM | Kd [17]: ≥ 61.9 µM | Kd [7, 30]: 0.0116 µM

Sequence: NISGQSPAR
IC50 [6, 29]: 47.6 µM

Sequence: PLTFGWCYKL
Kd [2, 37]: 13.2 µM | Kd [3, 37]: ≥ 29.4 µM | Kd [22, 37]: 6.85 µM | Kd [4, 37]: ≥ 20.1 µM | Kd [5, 37]: 19.3 µM

Sequence: PNRSTKGGQ
IC50 [6, 29]: 46.5 µM

Sequence: QPENLEYTIV
Kd [10, 38]: 4.62 µM | Kd [12, 38]: ≥ 69.6 µM

Sequence: RAYMATTIL
Kd [1, 26]: 0.0175 µM

Sequence: RIKGMSYTM
Kd [19, 39]: 0.0322 µM | Kd [20, 39]: 0.0374 µM

Sequence: RKISSKNSM
Kd [1, 26]: 0.000114 µM

Sequence: RKVKSYNYM
Kd [1, 26]: 0.00258 µM

Sequence: RLHSNTILK
Kd [1, 26]: 8.54 µM | Kd [18, 26]: 0.0485 µM | Kd [19, 26]: 2.22 µM | Kd [20, 26]: 6.35 µM | Kd [21, 26]: ≥ 38.6 µM

Sequence: RPAVGGKTV
Kd [23]: ≥ 20 µM

Sequence: RPGYHTQTAG
Kd [10, 28]: 0.0021 µM

Sequence: RPINEKEENM
Kd [9, 40]: 1.83 µM | Kd [10, 40]: 0.222 µM

Sequence: RPLSEKEENM
Kd [9, 39]: ≥ 30.1 µM | Kd [10, 39]: 2.03 µM

Sequence: SLNSIFNTF
Kd [1, 35]: 0.209 µM | Kd [19, 35]: 0.00222 µM | Kd [20, 35]: 0.0138 µM | Kd [21, 35]: ≥ 30.6 µM

Sequence: SLSHDFTLV
Kd [2, 36]: 0.00774 µM | Kd [3, 36]: 0.000305 µM | Kd [22, 36]: 0.0126 µM | Kd [4, 36]: 0.6 µM | Kd [5, 36]: 0.00165 µM

Sequence: STLPETTVVRR
Kd ([10]; source organism: Hepatitis B virus subtype adw2): ≥ 35 µM

Sequence: TAYEKLWYI
Kd [24]: 0.65 µM | Kd [25]: 0.13 µM

Sequence: TPPGSRDPF
Kd [9, 28]: 0.16 µM | Kd [10, 28]: 9.88 µM

Sequence: TSVGKLVHQV
Kd [4, 31]: 0.0371 µM

Sequence: TTANWLWAL
Kd [2, 39]: 0.00593 µM | Kd [4, 39]: 0.00636 µM | Kd [7, 39]: 3.08 µM

Sequence: TTIAVSMANI
Kd [4, 28]: 0.00387 µM | Kd [7, 28]: 3.51 µM

Kd ([3]; source organism: Homo sapiens): 0.018 µM | Kd ([22]; source organism: Homo sapiens): 0.0957 µM | Kd ([4]; source organism: Homo sapiens): ≥ 60 µM | Kd ([5]; source organism: Homo sapiens): 0.0948 µM
Sequence: VLQRNCAAYL

Sequence: VPSIKSGNDI
Kd [10, 31]: 1.37 µM | Kd [11, 31]: ≥ 47.6 µM | Kd [12, 31]: ≥ 22 µM

Sequence: VRKNFTSSF
Kd [1, 26]: 0.192 µM

Sequence: VSYNDYFNV
IC50 [6, 32]: 14.3 µM | IC50 [13, 32]: 0.743 µM | IC50 [8, 32]: ≥ 77.1 µM

Sequence: WLSLLVPFV
Kd ([10]; source organism: Hepatitis B virus): ≥ 35 µM

Sequence: YAFSKYMSF
Kd [1, 26]: 0.00177 µM | Kd [19, 26]: 0.00899 µM

Sequence: YKTLCDMIK
IC50 [6, 32]: ≥ 230 µM

Sequence: YKVASAGISY
Kd [9, 39]: 0.0704 µM | Kd [19, 39]: 0.00296 µM
